# Experimental data from the DeepSol protein solubility set.
# Experiment: soluble on expression in E. coli; label from the status in PepcDB or PDB records
row,Sequence,soluble on expression in E. coli
1,MIVLALDVYEGERAIKIAKSVKDYISMIKVNWPLILGSGVDIIRRLKEETGVEIIADLKLADIPNTNRLIARKVFGAGADYVIVHTFVGRDSVMAVKELGEIIMVVEMSHPGALEFINPLTDRFIEVANEIEPFGVIAPGTRPERIGYIRDRLKEGIKILAPGIGAQGGKAKDAVKAGADYIIVGRAIYNAPNPREAAKAIYDEIRGV,soluble
2,MIVLNCIRYLGMTDINEIGRLTLYEYDLLMTGKALAAVDESHKAHKQAWINHQVTATKLVGGKKNKKEVPVYKKFKDFFDYEEEIRKITQEIDEGYDKKGMDLLLKANL,not soluble
3,MIVSWRHKGLKAFFETGSSSGIRADHSKRLAHVLAVLNRARTPANVNMPGWRLHPLKGELEGFWSITINANWRIIFRFFDTDVELVDYLDYH,not soluble
4,MIYGILSKNLGMPTPTFLVCPDVVKFENVGQIAVVNGMVYLGGSVGIDKSGTLHKGLEEQTRQTFDNIRKCLEYANSGLDYIVSLNIFLSTSLSDSEEARFNELYREVFCVPATRPCRCCVRAQLQEGLLVEVVNVVAAQK,soluble
5,MIYLKSFERNIRLINMKVVYDDVRVLKDIIQALARLVDEAVLKFKQDSVELVALDRAHISLISVNLPREMFKEYDVNDEFKFGFNTQYLMKILKVAKRKEAIEIASESPDSVIINIIGSTNREFNVRNLEVSEQEIPEINLQFDISATISSDGFKSAISEVSTVTDNVVVEGHEDRILIKAEGESEVEVEFSKDTGGLQDLEFSKESKNSYSAEYLDDVLSLTKLSDYVKISFGNQKPLQLFFNMEGGGKVTYLLAPKV,soluble
6,MKAAAKRISDGVYWTGVLDWDLRNYHGYTLQGTTYNAYLVCGDEGVALIDNSYPGTFDELMARVEDALQQVGMERVDYIIQNHVEKDHSGVLVELHRRFPEAPIYCTEVAVKGLLKHYPSLREAEFMTVKTGDVLDLGGKTLTFLETPLLHWPDSMFTLLDEDGILFSNDAFGQHLCCPQRLDREIPEYILMDAARKFYANLITPLSKLVLKKFDEVKELGLLERIQMIAPSHGQIWTDPMKIIEAYTGWATGMVDERVTVIYDTMHGSTRKMAHAIAEGAMSEGVDVRVYCLHEDDRSEIVKDILESGAIALGAPTIYDEPYPSVGDLLMYLRGLKFNRTLTRKALVFGSMGGNGGATGTMKELLAEAGFDVACEEEVYYVPTGDELDACFEAGRKLAAEIRR,soluble
7,MKAESSNESFIIGQRVHSLNDSRRVGTVKYVGDVEGYSGTWIGVDWDQDGDGKHNGSVNGVFYFNGRSQSSASFVRSQNLSRGITLLQALELRYRTISTKDEEDEMYVLSAGNRRVSIQLLGGDKIQDKLSRFEELTSASLSYLGVSSLGVSSDLGSILPNLKLLDLTGNLISDWEEIGALCEQLPALTTLNLSCNSLSSDIKSLPQLKNIRVLVLNNSGLSWTQVEILRRSLPGIEELHLMGNMISTITSTSSSDDQAFNSLRLLNLDDNCISDWSEVLKLSQLPCLEQLYLNKNKLSRIFQSVNGTESSEKGSDPFPSLSCLLLGANNIGDLASVDALNGFPQLVDIRLSENPISDPVRGGVPRFVLVARLTKVQVLNGSEVRAREKKDSEIRYVRMVMSKLNDKSGEIELLHPRFYELKKLHGIEDERASAENSGPKNIASGLISITLKCVGPSMGEKPHLTKKLPGSITVGKLKILSENFFKLKSIKPRLFLQEEGSPFPTALDDETATLLDVGICDGSTLLVDEES,soluble
8,MKAIISYETPLEQAHFTAKNDEKNMFYKENTEESVEGSLQYDVLDAVGEFKGQPGYIVCNNISVTDEGRPVFENRFKNRAGLIENEPGFQAIRVLRPLSNDTYVILTMWETEQNFKDWTESRSFENAHKKRPVQAEGQAPAHPHAEQQKSIFSRPSFVTTFDVLV,not soluble
9,MKAIIVKPPNAGVQVKDVDEKKLDSYGKIKIRTIYNGICGADREIVNGKLTLSTLPKGKDFLVLGHEAIGVVEESYHGFSQGDLVMPVNRRGCGICRNCLVGRPDFCETGEFGEAGIHKMDGFMREWWYDDPKYLVKIPKSIEDIGILAQPLADIEKSIEEILEVQKRVPVWTCDDGTLNCRKVLVVGTGPIGVLFTLLFRTYGLEVWMANRREPTEVEQTVIEETKTNYYNSSNGYDKLKDSVGKFDVIIDATGADVNILGNVIPLLGRNGVLGLFGFSTSGSVPLDYKTLQEIVHTNKTIIGLVNGQKPHFQQAVVHLASWKTLYPKAAKMLITKTVSINDEKELLKVLREKEHGEIKIRILWE,soluble
10,MKALKLYGVEDLRYEDNEKPVIESANDVIVKVRATGICGSDTSRYKKMGPYIKGMPFGHEFSGVVDAIGSDVTHVNVGDKVTGCPAIPCYQCEYCLKGEYARCEKLFVIGSYEPGSFAEYVKLPAQNVLKVPDNVDYIEAAMVEPSAVVAHGFYKSNIQPGMTVAVMGCGSIGLLAIQWARIFGAAHIIAIDIDAHKLDIATSLGAHQTINSKEENLEKFIENHYANQIDLAIESSGAKVTIGQILTLPKKGGEVVLLGIPYDDIEIDRVHFEKILRNELTVCGSWNCLSSNFPGKEWTATLHYMKTKDINVKPIISHFLPLEKGPETFDKLVNKKERFDKVMFTIY,not soluble
11,MKANRVNIKQAITEGETSLGIEFGSTRIKAVLIDSSFETIASGSYEWENLLEDGFWTYNLVDIITGLRTAYSEMKNEVERNYGITIRKIGSIGISAMMHGYMAFDKTGELLVPFRTWRNSTTGAAAKELTDQFQFNIPERWSIAHLYQAILNEEKHLPRIDYITTLAGYIHWLLTGNKAIGIGDASGMFPIDESTQNYNESMVKQFDELISNKGYPWKLKDILPKVYISGEQAGELTEIGAKILDQSKNLQPGIPICPPEGDAGTGMVATNSVRKRTGNISVGTSVFAMIVLEKELSKVYPEIDLVTTPNGSPVGMVHANNCSSDINAWLGLFREFFEAMGQKIETNKLFEVMLNKALEADSDGGGLLSYGYFSGENITGLEKGRPLFVRSPESRFNLANFMRTHLFTAFAALKIGMDILTKEEKIEIDSILAHGGLFKTPLVGQKIVAAAMNTPVSVMETAGEGGAWGMAILASYMMNKGQEESLEDFLDKKVFEEDAGQEIYPDQLDVEGFEAFIERYKKGLMIEQAAVDHLILEHHHHHH,soluble
12,MKAYAKKRISYMPSSPSQNVINFEEIETQKENILPLKEGRSAAALSKAIHQPLVEINQVKSSFEQRLIDELPALSDPITLYLEYIKWLNNAYPQGGNSKQSGMLTLLERCLSHLKDLERYRNDVRFLKIWFWYIELFTRNSFMESRDIFMYMLRNGIGSELASFYEEFTNLLIQKEKFQYAVKILQLGIKNKARPNKVLEDRLNHLLRELGENNIQLGNEISMDSLESTVLGKTRSEFVNRLELANQNGTSSDVNLTKNNVFVDGEESDVELFETPNRGVYRDGWENFDLKAERNKENNLRISLLEANTNLGELKQHEMLSQKKRPYDEKLPIFRDSIGRSDPVYQMINTKDQKPEKIDCNFKLIYCEDEESKGGRLEFSLEEVLAISRNVYKRVRTNRKHPREANLGQEESANQKEAEAQSKRPKISRKALVSKSLTPSNQGRMFSGEEYINCPMTPKGRSTETSDIISAVKPRQLTPILEMRESNSFSQSKNSEIISDDDKSSSSFISYPPQR,soluble
13,MKAYVALLHSIVLGDGRRVVMADLKAMAEALGCRAPRTLVATGNLLFEAPEKPLAELEAELEKAFEKTFGRHVDIIVRSAEDWSRLAAGNPFLAESERDPASVHVRVMRLPLEVDMREKLLGYCSRGERVAIVDGDLWVDFAGKASESKLLGALTTKRLGIGTVRNWNTVKGLRGMVAG,not soluble
14,MKCNMCPRACNVDRNVNTGFCGMTNDIYAARAALHMWEEPCISGEHGSGAVFFSGCTLRCIFCQNSEIAAAQVGKKITVERLSDIFLELQDKCANNINLVTATHFVPQVAEALVKAKNKGLVIPVVYNSSAYENVSTLNMLDGLVDVYLPDMKYIDSRLSAEYSKAPDYADVAKAAIHEMVRQTGKLEFFIEDDELVKSGRVEAGIMKKGVIVRHLVLPGTTKDSKAVIKYLIDTYGDDIYISIMSQYTPFDRLKKHPLLSRKVTRKEYNSVVDYAIDCGINNGFIQEGDVAEESFIPEFDYEGI,not soluble
15,MKCPFCNPIKENILYEDDTIRILLDNYPANPGHLLIVPRRHVTKLEELSEGEKASLLRGIEIAIEALKKTLNPDGFNVGINIGKAAGQTVEHLHIHVIPRFNNDCKYPKGGIRKAVLDVKDENLEDEERWTKNRLPREKVEELRRALHGG,soluble
16,MKDDRYPSEWAQLALQKKQSVNWACERCGVQCLKPGEGKGLSTGDRYRLRMAVHHCDYDPGNNSPSNLKALCSPCHLYFHRRQRGNVIPGQLRLKFSFLILEHHHHHH,soluble
17,MKDFKLAKSKSHAIEETKPFSILLMGVDTGSEHRKSKWSGNSDSMILVTINPKTNKTTMTSLERDVLIKLSGPKNNGQTGVEAKLNAAYASGGAEMALMTVQDLLDINVDYFMQINMQGLVDLVNAVGGITVTNKFDFPISIAANEPEYKAVVEPGTHKINGEQALVYSRMRYDDPEGDYGRQKRQREVIQKVLKKILALNSISSYKKILSAVSNNMQTNIEISSKTIPNLLAYKDSLEHIKSYQLKGEDATLSDGGSYQILTKKHLLAVQNRIKKELDKKRSKTLKTSAILYEDYYGLEHHHHHH,soluble
18,MKDKKTISILGCGWLGLPLAEAFIQSGFRVKGSTTREERLSVIEAAGAEGYVLKADGGAWTGERLNDFLRCDILLIAIPPGTKRNANSTHAVEIGQLMDHIKKYSIAIKQLIYISSTSVYKNINSVVIESDTAIPSNIGNQILFQAEKHVHESVIERKLILRLGGLTGYDRMLGRFFAGKQELAGGNEPVNLVHRDDVVACILFLLKNGIGEQVFNICSPQHPSRKEFYTRLCDRFNLPEPH,not soluble
19,MKDKYLIIDGYNMIGQSPELGKIAKDNLQEAREQLLDAIANYNAVVADEIVCVFDAYEQSGIEREYIYHGVKTVFTKEKETADSYIERYVYNLYNKHTTHITVVTSDMSEQHAIFGAGAYRVSSREMWRDLRENEITVSKSLDDFTESKPRTRISLSNDVLAEFEKIRRGNHNKDLEHHHHHH,not soluble
20,MKDLKKIESYLDKLRIKEKDGEERKIYAEVLDGRTLKTLYKLSAKGYITAMGGVISTGKEANVFYADGVFDGKPVAMAVKIYRIETSEFDKMDEYLYGDERFDMRRISPKEKVFIWTEKEFRNLERAKEAGVSVPQPYTYMKNVLLMEFIGEDELPAPTLVELGRELKELDVEGIFNDVVENVKRLYQEAELVHADLSEYNIMYIDKVYFIDMGQAVTLRHPMAESYLERDVRNIIRFFSKYGVKADFEEMLKEVKGE,soluble
21,MKDPDRWMDVKEFLPLLAQKEWYTKTRFGYARGHEPVVYVQNIRRYYDVLVRITEPDAPSASGLEDQLAWLEHHHHHH,not soluble
22,MKEDPRIIKTLSKLQKAFVMLLKTYDAGDINVRQISDEAGVTRGAFYSHFSDKKEFVNFTINELVGSLFNSSLKDSVGFVDEVNHKNAHGTNVLSVSNFFDKVAADYQTYTIVLDTEKLPQFTEVLKERLNSEIKTFAEYYGKKVKHDGFPIEVLSSYYVNGLIGMIRMWLDEGMVYTSHYMANAAKKILGTKIQIDSQNIDLSDFFVDLEHHHHHH,soluble
23,MKEELIERFTRYVKIDTQSNEDSHTVPTTPGQIEFGKLLVEELKEVGLTEVTMDDNGYVMATLPANTDKDVPVIGFLAHLDTATDFTGKNVKPQIHENFDGNAITLNEELNIVLTPEQFPELPSYKGHTIITTDGTTLLGADDKAGLTEIMVAMNYLIHNPQIKHGKIRVAFTPDEEIGRGPAHFDVEAFGASFAYMMDGGPLGGLEYESFNAAGAKLTFNGTNTHPGTAKNKMRNATKLAMEFNGHLPVEEAPEYTEGYEGFYHLLSLNGDVEQSKAYYIIRDFDRKNFEARKNTIENIVKQMQEKYGQDAVVLEMNDQYYNMLEKIEPVREIVDIAYEAMKSLNIEPNIHPIRGGTDGSQLSYMGLPTPNIFTGGENYHGKFEYVSVDVMEKAVQVIIEIARRFEEQA,not soluble
